# Source: paper PMC4708090 (Biochemistry, 2015)
# B1: wt BfrB (Pseudomonas aeruginosa bacterioferritin B, 24-mer) (natural protein)
# chain: not shown
# B2: wt Bfd (C43S mutant of P. aeruginosa bacterioferritin-associated ferredoxin) (natural protein, Pseudomonas aeruginosa)
# chain: MYVCLCQGVTDNQIRDAIYEGCCSYREVREATGVGTQCGKCASLAKQVVRETLNDLQSAQPVPAFGTTAFVAA
# Key:
# [1] = target: B2; experiment: ITC
# SEC = target: the molecule itself; experiment: SEC
# [2] = target: B1; experiment: SPR
# [3] = target: B1; experiment: SPR; remark: listed apart in the source
# [4] = target: B1; experiment: ITC
# [5] = target: B1; experiment: SPR; remark: listed apart in the source
# L68A BfrB = L68A BfrB (Pseudomonas aeruginosa, UniProt Q9HY79 1-158, L68A); experiment: SPR
# E85A BfrB = E85A BfrB (Pseudomonas aeruginosa, UniProt Q9HY79 1-158, E85A); experiment: SPR
# E81A BfrB = E81A BfrB (Pseudomonas aeruginosa, UniProt Q9HY79 1-158, E81A); experiment: SPR
# [6] = target: B1; experiment: SPR; remark: listed apart in the source
binder,measurement,setting,value
B1,dH,[1],1.6 ± 0.3 kcal/mol
same,binding result,SEC,binds
B2,Kd,[2],2.6 ± 0.4 µM
same,koff,[2],0.069 ± 0.01 s⁻¹
same,kon,[2],26000 ± 2000 M⁻¹ s⁻¹
same,stoichiometry N,[3],12.7 Bfd per 24-mer BfrB
same,Kd,[4],4.2 ± 0.4 µM
same,Kd,[5],3.3 ± 0.5 µM
same,Kd,L68A BfrB,298 ± 20.5 µM
same,Kd,E85A BfrB,590 ± 2 µM
same,Kd,E81A BfrB,258 ± 21.5 µM
"Y2F Bfd (natural protein, Pseudomonas aeruginosa) MFVCLCQGVTDNQIRDAIYEGCCSYREVREATGVGTQCGKCASLAKQVVRETLNDLQSAQPVPAFGTTAFVAA",Kd,[6],10.7 ± 0.2 µM
"K40A Bfd (natural protein, Pseudomonas aeruginosa) MYVCLCQGVTDNQIRDAIYEGCCSYREVREATGVGTQCGACASLAKQVVRETLNDLQSAQPVPAFGTTAFVAA",Kd,[6],7.7 ± 0.5 µM
"L5A Bfd (natural protein, Pseudomonas aeruginosa) MYVCACQGVTDNQIRDAIYEGCCSYREVREATGVGTQCGKCASLAKQVVRETLNDLQSAQPVPAFGTTAFVAA",Kd,[6],82 ± 2.5 µM
